Measurements taken from patent publication US20130052132A1, “Method for Producing Radioactively Labeled Polypeptide” (priority 2011, published 2013).
* marks the point of attachment. Benzoyl(3-I) = O=C(c1cccc(I)c1)*

T1: GLP-1R of the pancreatic β-cells (Mus musculus, UniProt O35659)
T1 construct: the pancreas was dissected out of the mouse; from tissue; host or cells: pancreas sections of MIP-GFP mice after intravenous dosing
T1 sequence (O35659 22-463): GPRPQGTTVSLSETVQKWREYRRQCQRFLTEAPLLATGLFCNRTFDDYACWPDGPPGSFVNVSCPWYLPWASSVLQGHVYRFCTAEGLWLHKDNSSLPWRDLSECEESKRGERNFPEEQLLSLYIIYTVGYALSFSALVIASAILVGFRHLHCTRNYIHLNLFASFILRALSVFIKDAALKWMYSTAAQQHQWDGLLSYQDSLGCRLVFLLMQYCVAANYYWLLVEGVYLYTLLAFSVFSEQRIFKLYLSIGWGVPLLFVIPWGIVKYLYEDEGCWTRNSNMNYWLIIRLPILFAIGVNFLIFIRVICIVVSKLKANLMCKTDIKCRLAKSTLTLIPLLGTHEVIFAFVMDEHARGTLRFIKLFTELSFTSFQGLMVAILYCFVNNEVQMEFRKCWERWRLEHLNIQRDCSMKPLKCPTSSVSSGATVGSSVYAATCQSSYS

T2: GLP-1R (glucagon-like peptide-1 receptor) of mouse pancreatic islet cells (mouse, UniProt O35659 22-463)
T2 construct: whole, on cells; also called GLP-1R of pancreatic beta-cells
T2 sequence: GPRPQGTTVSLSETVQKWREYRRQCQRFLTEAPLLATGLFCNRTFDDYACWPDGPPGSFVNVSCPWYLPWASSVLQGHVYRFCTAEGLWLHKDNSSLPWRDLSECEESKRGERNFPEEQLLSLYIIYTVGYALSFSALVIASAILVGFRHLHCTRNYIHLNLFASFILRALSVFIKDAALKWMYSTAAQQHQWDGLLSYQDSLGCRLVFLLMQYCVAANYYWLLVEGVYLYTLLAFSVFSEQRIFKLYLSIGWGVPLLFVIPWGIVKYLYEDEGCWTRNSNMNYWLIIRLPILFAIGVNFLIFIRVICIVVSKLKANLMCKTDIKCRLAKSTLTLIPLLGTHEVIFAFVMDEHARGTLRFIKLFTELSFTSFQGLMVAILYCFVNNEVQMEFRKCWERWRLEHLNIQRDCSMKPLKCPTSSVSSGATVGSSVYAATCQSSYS

B1: polypeptide represented by the formula (11) (peptide)
peptide: Ac-DLSK(Benzoyl(3-I))QMEEEAVRLFIEWLRNGGPSSGAPPPS-NH2
SMILES: CC[C@H](C)[C@H](NC(=O)[C@H](Cc1ccccc1)NC(=O)[C@H](CC(C)C)NC(=O)[C@H](CCCNC(=N)N)NC(=O)[C@@H](NC(=O)[C@H](C)NC(=O)[C@H](CCC(=O)O)NC(=O)[C@H](CCC(=O)O)NC(=O)[C@H](CCC(=O)O)NC(=O)[C@H](CCSC)NC(=O)[C@H](CCC(N)=O)NC(=O)[C@H](CCCCNC(=O)c1cccc(I)c1)NC(=O)[C@H](CO)NC(=O)[C@H](CC(C)C)NC(=O)[C@H](CC(=O)O)NC(C)=O)C(C)C)C(=O)N[C@@H](CCC(=O)O)C(=O)N[C@@H](Cc1c[nH]c2ccccc12)C(=O)N[C@@H](CC(C)C)C(=O)N[C@@H](CCCNC(=N)N)C(=O)N[C@@H](CC(N)=O)C(=O)NCC(=O)NCC(=O)N1CCC[C@H]1C(=O)N[C@@H](CO)C(=O)N[C@@H](CO)C(=O)NCC(=O)N[C@@H](C)C(=O)N1CCC[C@H]1C(=O)N1CCC[C@H]1C(=O)N1CCC[C@H]1C(=O)N[C@@H](CO)C(N)=O
notes: Non-radioactive exendin(9-39) derivative with Arg in place of Lys at position 19; Formula (11) itself is a drawing; also called cold probe

What was measured:
[1] = set-up: species or system ddY mice; settings: mouse
Description: After 5 minutes, 15 minutes, 30 minutes, 60 minutes, and 120 minutes from the administration, organs were dissected out of the mice (n=5). The weight and radioactivity of each organ were determined, and an accumulation amount (% dose/g) of the polypeptide of Example 1 was calculated from the radioactivity per unit weight. FIG. 1 is a graph showing, by way of example, how the accumulation of the polypeptide of Example 1 in each organ changed over time. Table 2 provides the ratio of pancreas/liver (accumulation amount in pancreas/accumulation amount in liver), the ratio of pancreas/kidney (accumulation amount in pancreas/accumulation amount in kidney), and the ratio of pancreas/blood (accumulation amount in pancreas/accumulation amount in blood) based on the accumulation amount of the polypeptide of Example 1 in each organ. The polypeptide of Example 2 (0.51 μCi) was administered to unanesthetized 6-week-old ddY mice (male, weight: 30 g) by intravenous injection (through the tail vein). After 5 minutes, 15 minutes, 30 minutes, 60 minutes, and 120 minutes from the administration, organs were dissected out of the mice (n=5). The weight and radioactivity of each organ were determined, and an accumulation amount (% dose/g) of the polypeptide of Example 2 was calculated from the radioactivity per unit weight. FIG. 3 is a graph showing, by way of example, how the accumulation of the polypeptide of Example 2 in each organ changed over time. Table 4 provides the ratio of pancreas/liver, the ratio of pancreas/kidney, and the ratio of pancreas/blood based on the accumulation amount of the polypeptide of Example 2 in each organ. A biodistribution experiment was performed by following the same procedure as in Example 1 except that the polypeptide of Example 4 (0.61 μCi) was used in place of the polypeptide of Example 1. FIG. 6 is a graph showing, by way of example, how the accumulation of the polypeptide of Example 4 in each organ changed over time. […]

[2] = molecular target: T1, GLP-1R of the pancreatic β-cells; assay: Two-dimensional imaging analysis of pancreas sections (fluorescence and autoradiography); format: in vivo, MIP-GFP mouse; settings: MIP-GFP mice
Description: The polypeptide of Example 1 (5 μCi/100 μl) was administered to an unanesthetized MIP-GFP mouse (male, weight: 20 g) by intravenous injection, and after 30 minutes and 60 minutes from the administration, the pancreas was dissected out of the mouse (n=1). Sections were cut out of the dissected pancreas, and each section was placed on a slide glass, covered with a cover glass. The fluorescence and radioactivity (autoradiography) of each section were determined using an image analyzer (trade name: Typhoon 9410, manufactured by GE Health Care Inc.) (exposure time: 18 hours). The exemplary results are shown in lanes 1, 4 and 5 of FIG. 2. […] After 30 minutes from the preliminary administration, the polypeptide of Example 1 (5 μCi/100 μl) was administered to the mice by intravenous injection, and after 30 minutes and 60 minutes from the administration of the polypeptide, the pancreases were dissected out of the mice (n=2). Sections were cut out of the dissected pancreases, and the fluorescence and radioactivity of each section were determined in the same manner as above. […] FIG. 4 illustrates exemplary results of the imaging analysis of pancreas sections of MIP-GFP mice to which the polypeptide of Example 2 was administered. The images on the upper row show a fluorescence signal and those on the lower row show a radioactivity signal of the polypeptide represented by the formula (20). […]

[3] = molecular target: T2, GLP-1R (glucagon-like peptide-1 …); assay: displacement of [125I]Bolton-Hunter labeled exendin(9-39) from mouse pancreatic islet cells, filter separation, gamma counter
Description: First, pancreatic islets isolated from a mouse was recovered in a 50 ml-tube and after subjecting them to centrifugation (2000 rpm, 2 minutes), they were washed once with 20 ml of cold PBS. To the washed pancreatic islets, 15 ml of trypsin-EDTA (which was prepared by adding 12 ml of PBS-containing 0.53 mM EDTA (pH 7.4 (NaOH)) to 3 ml of trypsine-EDTA (0.05%/0.53 mM)) was added. This was incubated at 37° C. for one minute while shaken, and then immediately placed on ice. Subsequently, after it was subjected to vigorous pipetting 20 times with a 10 ml pipette dropper without being foamed, cold PBS was added so that the final amount would be 30 ml. After centrifugation (3000 rpm, 2 minutes), it was washed twice with 30 ml of cold PBS. The supernatant was removed, whereby a pancreatic islet cell sample was obtained. The obtained pancreatic islet cell sample was reserved at −80° C.
The pancreatic islet cell sample was suspended in a buffer (20 mM HEPES (pH 7.4), 1 mM MgCl₂, 1 mg/ml bacitracin, 1 mg/ml BSA) so as to make 100 μL/tube. […] Next, after B/F separation by aspirating with use of an aspirator to which a pre-moistened glass fiber filter (Whatman GF/C filter) was attached, the filter was washed three times with 5 ml of ice-cold PBS. The filter was set into the tube, and the radioactivity measurement was carried out with a gamma counter.

Molecule | deiodization metabolism in vivo [1] | accumulation in the pancreas ([1]; in vivo) | ratio of pancreas/kidney in the accumulation amount ([1]; in vivo) | localization of the radioactivity signal in pancreas sections ([2]; 30 and 60 minutes after intravenous injection, compared with GFP signal) | radioactivity signal in pancreas sections after blocking the receptors ([2]; preliminary administration of cold probe non-labeled exendin(9-39) 50 μg 30 minutes before) | IC50 [3]
Example 1 (DLSKQMEEEAVRLFIEWLRNGGPSSGAPPPS; A polypeptide produced in Production Example 1) | not subjected to deiodization metabolism in vivo | exceeding 15 % dose/g | ≥ 1 | substantially consistent with that of the GFP signal | hardly detected | –
B1 | – | – | – | – | – | 32.1 nM
